Measured values: patent publication EP4467563A1 (priority 2023, dated 2024)

Biological target: T1, LDLR (Homo sapiens, UniProt P01130)
T1 construct: expressed in transfected cells; host or cells: HEK293 (ATCC CRL-1573)
Type: binding

T1 sequence (P01130 22-860): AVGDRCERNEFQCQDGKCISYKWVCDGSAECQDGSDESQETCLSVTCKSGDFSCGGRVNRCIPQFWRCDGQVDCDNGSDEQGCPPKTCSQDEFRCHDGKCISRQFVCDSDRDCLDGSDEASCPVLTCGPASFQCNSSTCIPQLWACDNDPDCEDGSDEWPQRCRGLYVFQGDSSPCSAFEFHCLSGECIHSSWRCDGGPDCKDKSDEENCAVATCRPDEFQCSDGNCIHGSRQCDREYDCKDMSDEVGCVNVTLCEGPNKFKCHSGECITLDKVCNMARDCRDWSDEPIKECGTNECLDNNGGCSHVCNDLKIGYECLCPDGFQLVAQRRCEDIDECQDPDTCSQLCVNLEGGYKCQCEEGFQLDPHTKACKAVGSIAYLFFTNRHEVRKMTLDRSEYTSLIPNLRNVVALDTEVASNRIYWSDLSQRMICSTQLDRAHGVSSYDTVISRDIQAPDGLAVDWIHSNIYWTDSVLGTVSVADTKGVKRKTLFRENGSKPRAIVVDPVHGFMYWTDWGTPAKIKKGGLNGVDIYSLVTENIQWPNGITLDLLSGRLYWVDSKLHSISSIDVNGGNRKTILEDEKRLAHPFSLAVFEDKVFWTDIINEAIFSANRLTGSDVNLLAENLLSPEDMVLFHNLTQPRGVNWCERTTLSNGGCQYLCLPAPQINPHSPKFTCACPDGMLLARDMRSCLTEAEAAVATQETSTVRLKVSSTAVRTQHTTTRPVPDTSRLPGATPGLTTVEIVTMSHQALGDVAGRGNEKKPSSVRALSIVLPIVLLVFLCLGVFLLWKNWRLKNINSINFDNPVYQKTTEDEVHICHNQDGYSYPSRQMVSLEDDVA

BODIPY-FL-labelled LDL: BOPIDY FL complexed LDL purchased from ThermoFisher Scientific; fluorescent ligand for the BRET binding assay
ligand-binding BRET signal (binding to LDLR): concentration-dependent ligand-binding BRET signal
